Data published in US20220340905, “NUCLEIC ACID APTAMER SPECIFICALLY RECOGNIZING B-LACTOGLOBULIN AND USE THEREOF” (JIANGNAN UNIVERSITY, published 2022).

T1: beta-lactoglobulin (UniProt P02754 P02754:17-178)
T1 sequence: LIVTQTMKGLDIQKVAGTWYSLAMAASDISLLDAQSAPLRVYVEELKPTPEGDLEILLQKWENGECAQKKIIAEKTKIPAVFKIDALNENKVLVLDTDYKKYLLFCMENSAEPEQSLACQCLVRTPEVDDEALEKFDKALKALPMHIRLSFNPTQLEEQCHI

T2: alpha-lactalbumin (UniProt P00711 P00711:20-142)
T2 sequence: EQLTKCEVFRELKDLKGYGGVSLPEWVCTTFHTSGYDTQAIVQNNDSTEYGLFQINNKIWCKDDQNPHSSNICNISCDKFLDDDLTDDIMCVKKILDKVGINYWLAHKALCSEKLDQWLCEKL

B1: Lg-16 (ssDNA)
DNA: AGCAGCACAGAGGTCAGATGTCGTTTGTGGCTGTCAATTGGTGTGTTTACCTGTTTTGGCCTATGCGTGCTACCGTGAA
B2: Lg-9 (ssDNA)
DNA: AGCAGCACAGAGGTCAGATGGTTTTGTTGGGTCTGCTACGGACTTTGTTGACCTTTGCTCCCTATGCGTGCTACCGTGAA
B3: Lg-18 (ssDNA)
DNA: AGCAGCACAGAGGTCAGATGTTCGGCCTTTGCGTTAACGAACTTCTAGCTATGCGGCGTACCTATGCGTGCTACCGTGAA

Assays:
[1] = biological target: T1, beta-lactoglobulin; assay: magnetic bead strand-displacement fluorescence assay, 37 C; settings: label: 5'-FAM (fluorescence assay)
Procedure: (§1) Various concentrations (10 nM, 25 nM, 50 nM, 75 nM, 100 nM, 150 nM, 200 nM, and 300 nM) of the aptamer were respectively mixed with the biotinylated complementary short chain at a molar ratio of 1:1.5, denatured at 95° C. for 10 min, and slowly cooled to 37° C. for 3 h until the two were fully hybridized. The mixture was reacted with a certain amount of streptavidin-coupled magnetic beads (where the weight ratio of the aptamer to the magnetic beads was 1:400) at 37° C. and 200 rpm for 2 h to immobilize the aptamer on the magnetic beads by the strong binding between the biotin and streptavidin. The immobilized magnetic beads were incubated with 50 μg/mL β-lactoglobulin in a 300 μL system at 37° C. and 200 rpm. After magnetic separation, the supernatant was subjected to fluorescence measurement at an excitation wavelength of 485 nm and an emission wavelength of 522 nm. The relative fluorescence intensity at various aptamer concentrations was nonlinearly fitted by GraphPad prism 5.0 software, and the dissociation constant Kd of the aptamer was calculated (see Table 1). […] The homologous sequences (Lg-9 and Lg-16) of the aptamer Lg-18 also have good ability of binding to β-lactoglobulin.

[2] = biological target: T1, beta-lactoglobulin; assay: magnetic bead strand-displacement fluorescence assay, 37 C; aptamer hybridised to biotinylated short chain, released by 50 ug/mL protein; ITC in 10 mM Tris-HCl; settings: label: 5'-FAM (fluorescence assay); stem-loop (Mfold predicted)
Procedure: as §1

[3] = biological target: BSA (bovine serum albumin) (Bos taurus, UniProt P02769 P02769:25-607); assay: specificity control, 50 ug/mL protein, 200 nM aptamer on magnetic beads; text states good specificity, values only in figure; settings: label: 5'-FAM (fluorescence assay); stem-loop (Mfold predicted)
Sequence of BSA (bovine serum albumin) (P02769 25-607, one chain of several): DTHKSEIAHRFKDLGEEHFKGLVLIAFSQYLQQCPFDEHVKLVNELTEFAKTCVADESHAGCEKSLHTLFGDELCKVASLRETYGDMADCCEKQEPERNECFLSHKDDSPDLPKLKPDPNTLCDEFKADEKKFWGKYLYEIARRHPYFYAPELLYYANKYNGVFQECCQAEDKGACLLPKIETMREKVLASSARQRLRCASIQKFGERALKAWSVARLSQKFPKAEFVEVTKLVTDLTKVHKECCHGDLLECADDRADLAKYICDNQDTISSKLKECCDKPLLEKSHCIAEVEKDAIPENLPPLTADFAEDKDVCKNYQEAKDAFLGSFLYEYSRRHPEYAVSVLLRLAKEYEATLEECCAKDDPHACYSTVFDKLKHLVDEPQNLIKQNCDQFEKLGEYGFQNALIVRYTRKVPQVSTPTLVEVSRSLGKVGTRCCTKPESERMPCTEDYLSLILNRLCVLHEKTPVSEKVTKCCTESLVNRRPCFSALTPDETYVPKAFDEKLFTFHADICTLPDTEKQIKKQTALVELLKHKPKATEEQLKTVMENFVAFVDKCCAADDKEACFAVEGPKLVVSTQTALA
Procedure: (§2) Various concentrations (10 nM, 25 nM, 50 nM, 75 nM, 100 nM, 150 nM, 200 nM, and 300 nM) of the aptamer were respectively mixed with the biotinylated complementary short chain at a molar ratio of 1:1.5, denatured at 95° C. for 10 min, and slowly cooled to 37° C. for 3 h until the two were fully hybridized. The mixture was reacted with a certain amount of streptavidin-coupled magnetic beads (where the weight ratio of the aptamer to the magnetic beads was 1:400) at 37° C. and 200 rpm for 2 h to immobilize the aptamer on the magnetic beads by the strong binding between the biotin and streptavidin. The immobilized magnetic beads were incubated with 50 μg/mL β-lactoglobulin in a 300 μL system at 37° C. and 200 rpm. After magnetic separation, the supernatant was subjected to fluorescence measurement at an excitation wavelength of 485 nm and an emission wavelength of 522 nm. The relative fluorescence intensity at various aptamer concentrations was nonlinearly fitted by GraphPad prism 5.0 software, and the dissociation constant Kd of the aptamer was calculated (see Table 1). […]
(§3) The specificity of the aptamer (Lg-18) was evaluated by the same method. […] After magnetic separation, the fluorescence intensity of the supernatant was measured respectively, and then the specificity of the aptamer was evaluated.

[4] = biological target: T2, alpha-lactalbumin; assay: as above; settings: label: 5'-FAM (fluorescence assay); stem-loop (Mfold predicted)
Procedure: as §2, §3

Binder	Kd [1] [nM]	Kd [2] [nM]	binding result [3]	binding result [4]
B1	65.8	–	–	–
B2	71.8	–	–	–
B3	–	65	no binding	no binding
